Biological target: T1, His-DUB3 (UniProt Q6R6M4 1-530)
T1 construct: deubiquitinase DUB3 (USP17L2) cloned into pET30a; also called USP17L2; source: E. coli BL21, purified
T1 sequence (looked up): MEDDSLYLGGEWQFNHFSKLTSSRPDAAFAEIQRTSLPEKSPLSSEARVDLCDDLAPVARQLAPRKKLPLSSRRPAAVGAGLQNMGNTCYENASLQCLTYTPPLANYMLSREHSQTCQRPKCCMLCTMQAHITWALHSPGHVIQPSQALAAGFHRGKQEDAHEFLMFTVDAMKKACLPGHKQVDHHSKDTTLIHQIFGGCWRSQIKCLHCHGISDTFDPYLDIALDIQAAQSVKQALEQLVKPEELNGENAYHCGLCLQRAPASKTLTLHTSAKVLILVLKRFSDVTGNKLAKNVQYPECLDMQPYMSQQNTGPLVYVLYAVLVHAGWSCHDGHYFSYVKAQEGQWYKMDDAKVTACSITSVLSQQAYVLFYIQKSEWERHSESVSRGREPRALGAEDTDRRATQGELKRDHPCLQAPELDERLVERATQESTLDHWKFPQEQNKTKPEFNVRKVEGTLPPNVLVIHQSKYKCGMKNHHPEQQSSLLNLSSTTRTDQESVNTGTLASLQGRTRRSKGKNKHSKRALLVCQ
Test: pull-down; GST or GST-fusion protein on Pierce Glutathione agarose, incubated with purified His-tagged protein at 4 °C for 2 h; four washes; immunoblotting
Conditions: both partners purified

B1: GST-CK2α (Casein kinase II alpha, catalytic subunit) (enzyme, UniProt P68400 1-391, looked up)
chain: MSGPVPSRARVYTDVNTHRPREYWDYESHVVEWGNQDDYQLVRKLGRGKYSEVFEAINITNNEKVVVKILKPVKKKKIKREIKILENLRGGPNIITLADIVKDPVSRTPALVFEHVNNTDFKQLYQTLTDYDIRFYMYEILKALDYCHSMGIMHRDVKPHNVMIDHEHRKLRLIDWGLAEFYHPGQEYNVRVASRYFKGPELLVDYQMYDYSLDMWSLGCMLASMIFRKEPFFHGHDNYDQLVRIAKVLGTEDLYDYIDKYNIELDPRFNDILGRHSRKRWERFVHSENQHLVSPEALDFLDKLLRYDHQSRLTAREAMEHPYFYTVVKDQARMGSSSMPGGSTPVSSANMMSGISSVPTPSPLGPLAGSPVIAAANPLGMPVPAAAGAQQ
notes: Casein kinase II alpha (CK2α), catalytic subunit of CK2, cloned into pGEX4T-1; source: E. coli BL21, IPTG induced, pulled down on Pierce Glutathione agarose
binding result: binds

Reference: paper PMC11743126, “CK2α-mediated phosphorylation of DUB3 promotes YAP1 stability and oncogenic functions” (Cell Death & Disease, 2025)
